B1: CPEB3 Ribozyme (parent)
chain: UAACAGGGGGCCACAGCAGAAGCGUUCACGUCGCAGCCCCUGUCAGAUUCUGGUGAAUCUGCGAAUUCUGCUGUAUAUCUC

Variants of: B1
Test: self-cleavage, relative activity (ratio to wild type); higher = more cleavage; in vitro, sequencing
Summary of the method: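 CPEB3 self-cleaving ribozyme mutant libraries were made by rounds of error-prone PCR, barcoded, and transcribed in vitro with T7 RNA polymerase for 5 hours at 37°C. Cleavage occurred during transcription and a 15 min DNase I step before EDTA stop. RNAs were reverse transcribed with template switching and Illumina-sequenced, with DNA sequencing mapping barcodes to variants. Relative activity is the variant's cleaved/total read fraction divided by wild type's (minimum 5 reads), averaged across three batches.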

Variant	self-cleavage
UAACAGGGGGCCAAAGCAGAAGCGUUCACGUCGCAGCCCCUGUCAGAUUCUGGUGGAUCUGCGAAUUCUGCUGUAUAUCUC [C14A A56G]	1.1
UAACAGGGGGCCAAAGCAGAAGCGUUCACGUCGCAGCCCCUGUCAGAUUCUGGUGAAUCUGCGAAUUCUGCUGUAUAUCUC [C14A]	1.17
UAACAGGGGGCCUCAGCAGAAGCGUUCACGUCGCAGCCCCUGUCAGAUUCUGGUGAAUCUGCGAAUUCUGCUGCAUAUCUC [A13U U74C]	1.28
UAACAGGGGGCCUCAGCAGAAGCGUUCACGUCGCAGCCCCUGUCAGAUUCUGGUGAAUCUGCGAAUUCUGCUGAAUAUCUC [A13U U74A]	1.23
UAACAGGGGGCCAAAGCAGAAGCGUUCACGUCGCAGCCCCUGUCAGAUUCUGGUGAAUCUGCGAAUUCUGCCGUAUAUCUC [C14A U72C]	1.22
UAACAGGGGGCCAAAGCAGAAGCGUUCACGUCGCAGCGCCUGUCAGAUUCUGGUGAAUCUGCGAAUUCUGCUGUAUAUCUC [C14A C38G]	0.19
UAACAGGGGGCCAAAGCAGAAGCGUUCACGUCGCAGCCCCUGUCAGAUUCUGGUGAAUCUGCGAAUUCUGCUUUAUAUCUC [C14A G73U]	1.26
UAACAGGGGGCCAAAGCAGAAGCGUUCACGUCGCAGCCCCUGUCAGAUUCCGGUGAAUCUGCGAAUUCUGCUGUAUAUCUC [C14A U51C]	1.04
UAACAGGGGGCCAAAGCAGAAGCGUUCACGUCGCAGCCCCUGUCAGAUUCAGGUGAAUCUGCGAAUUCUGCUGUAUAUCUC [C14A U51A]	1.1
UAACAGGGGGCCUCAGCAGAAGCGUUCACGUCGCAGCCCCUGUCAGAUUCUGGUGAAUCUGCGAAUUCUGCUGUAUAUCGC [A13U U80G]	1.27
UAACAGGGGGCCUCAGCAGAAGCGUUCACGUCGCAGCCCCUGUCAGAUUCUGGUGAAUCUGCGAAUUCUGCUGUAUAUCAC [A13U U80A]	1.25
UAACAGGGGGCCUCAGCAGAAGCGUUCACGUCGCAGCCCCUGUCAGAUUCUGGUGAAUCUGCGAAUUCUGCUGUAUAUCCC [A13U U80C]	1.18
UAACAGGGGGCCAAAGCAGAAGCGUUCACGUCGCAGCCCCUGUCUGAUUCUGGUGAAUCUGCGAAUUCUGCUGUAUAUCUC [C14A A45U]	0.77
UAACAGGGGGCCAAAGCAGAAGCGUUCACGUCGCAGCCCCUGUCGGAUUCUGGUGAAUCUGCGAAUUCUGCUGUAUAUCUC [C14A A45G]	1.15
UAACAGGGGGCCUCAGCAGAAGCGUUCACGUCGCAGCCCCUGUCAGAUUCUGGUGAAUCUGCGAAUUCAGCUGUAUAUCUC [A13U U69A]	0.74
UAACAGGGGGCCUCAGCAGAAGCGUUCACGUCGCAGCCCCUGUCAGAUUCUGGUGAAUCUGCGAAUUCGGCUGUAUAUCUC [A13U U69G]	0.85
UAACAGGGGGCCUCAGCAGAAGCGUUCACGUCGCAGCCCCUGUCAGAUUCUGGUGAAUCUGCGAAUUCCGCUGUAUAUCUC [A13U U69C]	0.71

Variant	self-cleavage
UAACAGGGGGCCAAAGCAGAAGCGUUCACGUCGCGGCCCCUGUCAGAUUCUGGUGAAUCUGCGAAUUCUGCUGUAUAUCUC [C14A A35G]	1.26
UAACAGGGGGCCAAAGCAGAAGCGUUCACGUCGCUGCCCCUGUCAGAUUCUGGUGAAUCUGCGAAUUCUGCUGUAUAUCUC [C14A A35U]	0.4
UAACAGGGGGCCAAAGCAGAAGCGUUCACGUCGCAGCCCCUGUCAGAUUCUGGUGAAUCUGCGAAUUCCGCUGUAUAUCUC [C14A U69C]	0.4
UAACAGGGGGCCAAAGCAGAAGCGUUCACGUCGCAGCCCCUGUCAGAUUCUGGUGAAUCUGCGAAUUCAGCUGUAUAUCUC [C14A U69A]	0.48
UAACAGGGGGCCAAAGCAGAAGCGUUCACGUCGCAGCCCCUGCCAGAUUCUGGUGAAUCUGCGAAUUCUGCUGUAUAUCUC [C14A U43C]	0.83
UAACAGGGGGCCAAAGCAGAAGCGUUCACGUCGCAGCCCCUGACAGAUUCUGGUGAAUCUGCGAAUUCUGCUGUAUAUCUC [C14A U43A]	1.24
UAACAGGGGGCCAAAGCUGAAGCGUUCACGUCGCAGCCCCUGUCAGAUUCUGGUGAAUCUGCGAAUUCUGCUGUAUAUCUC [C14A A18U]	0.49
UAACAGGGGGCCAAAGGAGAAGCGUUCACGUCGCAGCCCCUGUCAGAUUCUGGUGAAUCUGCGAAUUCUGCUGUAUAUCUC [C14A C17G]	0.44
UAACAGGGGGCCAAGGCAGAAGCGUUCACGUCGCAGCCCCUGUCAGAUUCUGGUGAAUCUGCGAAUUCUGCUGUAUAUCUC [C14A A15G]	1.1
UAACAGGGGGCCAAAGCAGAAGCGUUCACGUCGCAGCCCCCGUCAGAUUCUGGUGAAUCUGCGAAUUCUGCUGUAUAUCUC [C14A U41C]	1.22
UAACAGGGGGCCAAAGCAGAAGCGUUCACGUCGCAGCCCCUAUCAGAUUCUGGUGAAUCUGCGAAUUCUGCUGUAUAUCUC [C14A G42A]	0.09
UAACAGGGGGCCAAAGCAGAAGCGUUCACGUCGCAGCCCCUGUCAGAUUCUGAUGAAUCUGCGAAUUCUGCUGUAUAUCUC [C14A G53A]	1.38
UAACAGGGGGCCUCAGCAGAAGCGUUCACGUCGCAGCCCCUGUCAGAUUCUGGUGAAUCCGCGAAUUCUGCUGUAUAUCUC [A13U U60C]	0.64
UAACAGGGGGCCUCAGCAGAAGCGUUCACGUCGCAGCCCCUGUCAGAUUCUGGUGAAUCAGCGAAUUCUGCUGUAUAUCUC [A13U U60A]	0.73
UAACAGGGGGCCAAAGCAGAAGCGUUCACGUCGCAGCCCCUGUCAGAUUCUGGUGAAUCUGCGAAUUCUGCUGAAUAUCUC [C14A U74A]	1.25
UAACAGGGGGCCAAAGCAGAAGCGUUCACGUCGCAGCCCCUGUCAGAUUCUGGUGAAUCUGCGAAUUCUGCUGCAUAUCUC [C14A U74C]	1.23
UAACAGGGGGCCAAAGCAGAAGCGUUCACGUAGCAGCCCCUGUCAGAUUCUGGUGAAUCUGCGAAUUCUGCUGUAUAUCUC [C14A C32A]	0.2

Source: the RNAGym collection of RNA variant scans (doi:10.1093/nar/gkz1192)
